In patent US20220332804A1 (CSL INNOVATION, published 2022):

What was measured:
Assay in all cases: SPR, KD relative to WT C2;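 further: biacore SPR at 37 °C, anti-C2 mAbs captured via immobilised goat anti-human IgG, C2 alanine or serine surface mutants as analytes, 1:1 model fitted, double-referenced sensograms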
human C2 K329A = biological target: T1, human C2 K329A (human, UniProt P06681 21-752)
T1 sequence: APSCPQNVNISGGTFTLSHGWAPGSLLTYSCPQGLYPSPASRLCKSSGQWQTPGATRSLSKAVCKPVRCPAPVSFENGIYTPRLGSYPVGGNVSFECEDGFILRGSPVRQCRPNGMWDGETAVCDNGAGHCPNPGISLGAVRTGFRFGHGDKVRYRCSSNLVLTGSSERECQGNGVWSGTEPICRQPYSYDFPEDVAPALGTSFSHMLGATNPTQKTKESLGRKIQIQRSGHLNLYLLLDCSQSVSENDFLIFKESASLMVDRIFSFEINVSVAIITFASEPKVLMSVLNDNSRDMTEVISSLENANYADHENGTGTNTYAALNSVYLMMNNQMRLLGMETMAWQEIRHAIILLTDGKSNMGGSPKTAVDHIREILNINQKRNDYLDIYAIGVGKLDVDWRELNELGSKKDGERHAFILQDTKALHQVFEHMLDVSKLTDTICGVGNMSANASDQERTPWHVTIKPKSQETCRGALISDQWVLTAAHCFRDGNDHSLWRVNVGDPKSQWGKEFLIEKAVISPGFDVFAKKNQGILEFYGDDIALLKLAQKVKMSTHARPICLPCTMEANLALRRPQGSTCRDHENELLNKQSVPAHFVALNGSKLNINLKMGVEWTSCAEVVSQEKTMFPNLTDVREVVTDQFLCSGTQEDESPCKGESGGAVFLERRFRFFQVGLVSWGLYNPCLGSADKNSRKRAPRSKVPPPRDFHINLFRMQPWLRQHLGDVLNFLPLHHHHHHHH

human C2 K244A = biological target: T2, human C2 K244A (human, UniProt P06681 21-752)
T2 sequence: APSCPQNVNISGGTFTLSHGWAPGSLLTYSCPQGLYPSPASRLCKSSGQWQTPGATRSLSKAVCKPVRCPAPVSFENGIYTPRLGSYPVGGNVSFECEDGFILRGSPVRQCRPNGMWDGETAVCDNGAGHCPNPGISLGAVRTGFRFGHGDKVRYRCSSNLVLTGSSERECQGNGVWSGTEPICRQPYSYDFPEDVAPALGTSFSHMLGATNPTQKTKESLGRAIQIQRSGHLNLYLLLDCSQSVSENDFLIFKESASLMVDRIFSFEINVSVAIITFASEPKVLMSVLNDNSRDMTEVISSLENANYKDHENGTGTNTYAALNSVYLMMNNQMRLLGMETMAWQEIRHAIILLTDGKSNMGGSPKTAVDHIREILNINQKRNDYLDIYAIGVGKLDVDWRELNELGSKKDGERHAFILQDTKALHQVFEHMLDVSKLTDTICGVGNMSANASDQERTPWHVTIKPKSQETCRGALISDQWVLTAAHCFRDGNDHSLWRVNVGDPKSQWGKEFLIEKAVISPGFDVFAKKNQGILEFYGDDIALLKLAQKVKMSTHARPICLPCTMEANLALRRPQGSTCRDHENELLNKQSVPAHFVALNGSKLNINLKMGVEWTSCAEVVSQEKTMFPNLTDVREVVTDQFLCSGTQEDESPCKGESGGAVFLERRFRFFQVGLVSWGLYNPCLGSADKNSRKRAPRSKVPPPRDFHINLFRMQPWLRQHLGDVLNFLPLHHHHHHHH

human C2 E450A = biological target: T3, human C2 E450A (human, UniProt P06681 21-752)
T3 sequence: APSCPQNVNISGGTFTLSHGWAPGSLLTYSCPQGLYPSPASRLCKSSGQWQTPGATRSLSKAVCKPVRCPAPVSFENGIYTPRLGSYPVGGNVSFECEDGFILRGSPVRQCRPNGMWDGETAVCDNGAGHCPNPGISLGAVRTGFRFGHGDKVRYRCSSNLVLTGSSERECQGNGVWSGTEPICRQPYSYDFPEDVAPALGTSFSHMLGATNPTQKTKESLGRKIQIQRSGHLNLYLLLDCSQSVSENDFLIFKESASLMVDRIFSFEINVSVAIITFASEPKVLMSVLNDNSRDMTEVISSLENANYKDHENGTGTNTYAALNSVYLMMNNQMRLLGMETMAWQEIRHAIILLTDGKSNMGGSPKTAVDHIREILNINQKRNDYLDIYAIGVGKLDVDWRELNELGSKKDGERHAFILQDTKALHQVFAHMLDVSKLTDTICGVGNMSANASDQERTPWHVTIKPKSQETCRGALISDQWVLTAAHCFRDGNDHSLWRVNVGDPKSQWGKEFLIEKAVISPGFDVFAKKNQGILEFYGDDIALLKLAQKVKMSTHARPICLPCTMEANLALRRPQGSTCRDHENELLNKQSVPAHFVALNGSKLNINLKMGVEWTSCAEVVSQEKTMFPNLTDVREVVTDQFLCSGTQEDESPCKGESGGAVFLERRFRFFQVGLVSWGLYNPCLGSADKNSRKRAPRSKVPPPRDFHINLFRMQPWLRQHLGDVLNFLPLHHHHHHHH

human C2 E490A = biological target: T4, human C2 E490A (human, UniProt P06681 21-752)
T4 sequence: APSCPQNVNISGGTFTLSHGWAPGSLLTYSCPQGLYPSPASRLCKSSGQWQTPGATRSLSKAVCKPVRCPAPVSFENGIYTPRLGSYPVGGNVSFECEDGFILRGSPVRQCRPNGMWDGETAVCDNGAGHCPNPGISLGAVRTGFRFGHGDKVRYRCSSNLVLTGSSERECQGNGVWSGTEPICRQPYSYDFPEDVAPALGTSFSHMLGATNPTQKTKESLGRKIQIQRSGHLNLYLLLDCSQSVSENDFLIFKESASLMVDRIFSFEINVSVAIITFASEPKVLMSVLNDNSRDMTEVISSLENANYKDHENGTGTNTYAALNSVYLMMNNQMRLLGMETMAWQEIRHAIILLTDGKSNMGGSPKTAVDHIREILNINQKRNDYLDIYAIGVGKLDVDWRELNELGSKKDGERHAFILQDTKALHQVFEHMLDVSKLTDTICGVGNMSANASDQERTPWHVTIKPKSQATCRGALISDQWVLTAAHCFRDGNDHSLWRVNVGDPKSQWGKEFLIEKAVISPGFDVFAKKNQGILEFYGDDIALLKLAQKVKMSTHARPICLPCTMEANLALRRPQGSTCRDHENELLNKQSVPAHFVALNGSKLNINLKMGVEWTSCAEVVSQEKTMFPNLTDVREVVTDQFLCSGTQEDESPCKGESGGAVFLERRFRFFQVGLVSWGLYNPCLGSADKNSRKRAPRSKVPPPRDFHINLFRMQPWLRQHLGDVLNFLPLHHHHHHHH

B1: RF16-226 (antibody, human IgG4 S228P, lambda)
heavy: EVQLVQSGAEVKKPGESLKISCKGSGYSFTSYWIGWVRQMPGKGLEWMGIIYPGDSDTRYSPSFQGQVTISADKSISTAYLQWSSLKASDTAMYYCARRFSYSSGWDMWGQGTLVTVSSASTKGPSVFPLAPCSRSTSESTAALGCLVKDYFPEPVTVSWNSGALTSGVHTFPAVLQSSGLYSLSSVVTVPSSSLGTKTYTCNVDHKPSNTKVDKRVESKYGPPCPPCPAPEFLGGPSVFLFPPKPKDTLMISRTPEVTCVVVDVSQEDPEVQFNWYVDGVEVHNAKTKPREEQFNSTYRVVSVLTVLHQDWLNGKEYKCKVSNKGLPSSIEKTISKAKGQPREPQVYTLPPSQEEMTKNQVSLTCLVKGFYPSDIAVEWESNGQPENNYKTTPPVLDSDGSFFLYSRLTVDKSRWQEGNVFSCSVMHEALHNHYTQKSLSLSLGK
light: SYELTQPPSVSVSPGQTARITCSGDALTSKYVAWYQQKSGLAPLLVIYEDTRRPSGIPAKFSGSSSGSVATLTISGAHGDDEADYYCYSTDASGHQRVFGGGTKLTVLSQPKAAPSVTLFPPSSEELQANKATLVCLISDFYPGAVTVAWKADGSPVKAGVETTKPSKQSNNKYAASSYLSLTPEQWKSHRSYSCQVTHEGSTVEKTVAPTECS
notes: pH-dependent anti-C2 antibody from a phage display library; also called WT
Human C2 K329A
  Fold diff: 3 fold
Human C2 K244A
  Fold diff: 2 fold
Human C2 E450A
  Fold diff: 0 fold
Human C2 E490A
  Fold diff: 2 fold
